Values quoted from earlier work in PMC8515877.

Target: GnRH receptor (Mus musculus) (UniProt Q01776)
UniProt Q01776, sequence (Q01776 whole entry): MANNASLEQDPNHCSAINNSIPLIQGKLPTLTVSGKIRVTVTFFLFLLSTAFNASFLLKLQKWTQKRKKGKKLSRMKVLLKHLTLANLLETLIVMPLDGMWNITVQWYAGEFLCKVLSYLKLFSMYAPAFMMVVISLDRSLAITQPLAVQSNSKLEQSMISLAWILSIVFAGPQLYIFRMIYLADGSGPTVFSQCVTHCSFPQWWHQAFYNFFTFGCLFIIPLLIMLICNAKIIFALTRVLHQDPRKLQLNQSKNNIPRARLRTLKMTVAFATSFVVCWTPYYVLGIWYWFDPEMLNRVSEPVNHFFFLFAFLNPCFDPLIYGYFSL

GnRH, sequence (P13562 whole entry, looked up): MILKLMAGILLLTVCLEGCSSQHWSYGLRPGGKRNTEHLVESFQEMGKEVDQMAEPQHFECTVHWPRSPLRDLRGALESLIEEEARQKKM

GnRH (from UniProt P13562)
Kd: 1.4 nM
